CN111434681A
Values joined by “and” are separate entries in the source; they are usually repeats but may differ in a detail not shown here. Identical values can stand only once.

Key:
[1] = target: H7N9病毒 A/Anhui/1/2013 (血凝素HA on virus) (influenza A virus A/Anhui/1/2013 (H7N9)); experiment: cell-based or functional assay
[2] = target: H7N9病毒的HA蛋白(购自ACROBiosystems) (H7N9 influenza virus)
[3] = target: H7N9病毒的HA蛋白(购自ACROBiosystems) (H7N9 influenza virus); remark: listed apart in the source

B1: 抗H7N9全人源单克隆抗体6J15 (antibody, V domains shown)
VH: QVQLVESGAEVKKPGASVKVSCKASGYNIFTSYDINWVRQATGQGLEWMGWMNPDSGDTGFAQKFQGRVTMTRNTSITTAYMELSSLTSEDTAVYYCATGNADCSGSCYNWFDPWGQGTLVTVSS
VL: SSELTQDPAVSVALGQTVRITCQGDRLRSTYYASWYQQKPGQAPVLVIYGKNNRPSGIPDRFSGSSSGNTASLTITGAQAEDEADYYCNSRDTSGYHLVFGGGTKLTVLV
微量中和-ELISA实验 (MDCK cells, 100TCID50 virus), IC50 [1]: 0.35 µg/mL
Kd [2]: 2.06 nM
450nm (OD) [3]: 2.25 OD 450nm and 1.85 OD 450nm and 1.78 OD 450nm
